# According to a protein production outcome set (Wang et al. 2014):
# Assay: label from the status in PepcDB records
sequence,measurement,value
MKRLIGLVIVALVLLAACGSNNDKKVTIGVASNDTKAWEKVKELAKKDDIDVEIKHFSDYNLPNKALNDGDIDMNAFQHFAFLDQYKKAHKGTKISALSTTVLAPLGIYSDKIKDVKKVKDGAKVVIPNDVSNQARALKLLEAAGLIKLKKDFGLAGTVKDITSNPKHLKITAVDAQQTARALSDVDIAVINNGVATKAGKDPKNDPIFLEKSNSDAVKPYINIVAVNDKDLDNKTYAKIVELYHSKEAQKALQEDVKDGEKPVNLSKDEIKAIETSLAK,protein production,not failed
MVEENQLQSLKDVAKQAPVHRKLDIQEWKTAEGAKVLFVEAHELPMFDLRLTFAAGSSQDAGTPGLSMLTNAMLNEGVPGKDTTAIAAGFEDLGASFSNGSYRDMAVAGLRSLSEADKRTQALKLFEQVIGQPTFPEDALARIKNQVLAGFEYQKQNPGKLAGLELFKRLYGEHPYAHSSDGDEKSVPTISREQLQAFHKKAYAAGNVVIALVGDLSRQEAEAIAAEVSKALPQGPALAKTVQPETPKPGLTHIDFPSEQTHLMLAQLGIDRQDPDYAALYLGNQILGGGGFGTRLMDQVREKRGLTYGIYSGFTAMQARGPFMINFQTRAELSEGALKLVQDIVRDYLANGPTQKELDDAKRELAGSFPLSTASNADIVGQLGAIGFYGLPLDYLESFLKQVEGLSVEQVRTAMAKHLDADAFVIVSAGLEHHHHHH,protein production,not failed
MQHTEERELKKRLMNTARTVSEMTEVKEALARKKQTEAVRHAVEEIRMINEADYIVVMDMNHIRYTHPVSTSIGKKSEGADEEAAFAEHIYFSEAKGEIGTAVRAFYPVKDQDLNQIGVVLVGKTLPGIADILLHLKRDI,protein production,failed
MDNRTGEMEVFVSAAELQSFSAAGRRLKLSPSAVSKLVTRIEDRLGTRLLVRSTRMMTLTPEGEIYLARARRILADIADTEQIVAAGGKLVPRGLLRVNASVGFGERFLLPLIPAFLELYPEVQLDISLTDGIIGLIEERTDIAIRSGAMDDSSLKARKLLESRRVIIASPSYIKRHGMPQTPADLAAHNCFSFNFRRSLNEWPFRDPGSTEIYRLPVSGNSSVNSGMIMRRLCLAGSGLGRVGQFHVQPDIDAGTLVPVLEDYNPDDIEEIHAVFAGHEHLATRIRAFIDFLAEHVGKDRA,protein production,failed
MDFDLRWLFIAASLGLCAWAGWQFVHRLARARLLGDVPTSRIRSAAQGFVELYGVLEEGPEGPLQAPLTGKPCLWWRYRIEVEEKRSGREKAWRTVDKGASESPFSLRDATDACLVDPRGAEVRPLTQQRWEAFREAPIDTLRLLESFGTLVGGERLYRYTEERLHAGEPLYALGEFRSSGGGRQGLDAERAQGAVIREWKGDFHGLLARFDSDGNGELDEREWNRVRLAARLEAEDRHRASSAAPTRHRLGKPGEAHPFILSSQGEDDLAVQLRRQAAGAALLCLGSALLAGWLFSRLF,protein production,failed
MSDIISIKDIDLAKKKVFIRCDFNVPQDDFLNITDDRRIRSAIPTIRYCLDNGCSVILASHLGRPKEISSKYSLEPVAKRLARLLDKEIVMAKDVIGEDAKTKAMNLKAGEILLLENLRFEKGETKNDENLAKELASMVQVYINDAFGVCHRAHSSVEAITKFFDEKHKGAGFLLQKEIDFASNLIKHPARPFVAVVGGSKVSGKLQALTNLLPKVDKLIIGGGMAFTFLKALGYDIGNSLLEEELLEEANKILTKGKNLGVKIYLPVDVVAAPACSQDVPMKFVPAQEIPNGWMGLDIGPASVRLFKEVISDAQTIWWNGPMGVFEIDKFSKGSIKMSHYISEGHATSVVGGGDTADVVARAGDADEMTFISTGGGASLELIEGKELPGVKALRSKENE,protein production,not failed
MKKEKKDYYEILGVPRDATQEEIKRAYKRLVKEWHPDRHPENRKEAEQRFKEIQEAYEVLSDPQKRAMYDRFGYVGEQPTYQETESGGFFDDIFRDFENIFNRDIFDVFFGERPHQEERREYARRGEDIRYEIEVTLSDLINGAEIPVEYERYETCPRCGGTGVEPNAGYMDCPSCGGTGRIREERRSFFGYFVSERTCERCGGTGKIPREYCHECGGSGRVLRKVRRTVKIPPNVEDGTHLRITGGGNAGYYGGPYGDLIIIVRVKPDPRFKKSGSDLVYDVTIDYLQAILGTTVEVPLPEGGTTMLKIPPGTQPETVFRLKGKGLPNRYGRRGDLIVNVHVEIPKSLSREERKVLEELAKKRGVTIG,protein production,failed
MDGHSKNHCSPVGRYFPMPLDRRFLPGWLAFLALLAICVFPLMAKAAGVPALVGRVNDYAGMISPQARSIIDQKLKALEAEDGTQVAVLTVPSLDGQPIEEFSIKVAEAWKIGQKGRDNGILFIVSKNDRAMRIEVGYGLEGRLTDLQAGRITRDVIKPAFKSGDYDKGFIDGVDAIVASVKGEYKAPKRKNDDGAPSPFLIFIILFVLFVASRFMRFFGGGGGPFGFGGPGGGFFPGGGFGGGGGSSDDGGFSGGGGDFGGGGASDNW,protein production,failed
MTRYGLRARVITLTLAPTLIIGLLLSGFFSFNRYQDLEKQVITTGNSIIEPLAIASESHLLAESREAVRRLISYAHRKNSKLVRSIAVFDEHHELFVTSNFHPNFEALMFPKDKPIPKLGNSEIYENSLILRVPILSEGHYLSELSNENQGTKAIGYIAVEMDLSSLRLQQYQEVFSAFLVLILGLGLASVFASRLMHDVTQPITHMKNVVDRIRRGHLDVRIEGKMHGELDQLKNGINAMAVSLSEYHVEMQHSIDQATSDLRETLEQLEIQNVELDIAKKRAQEAARVKSEFLANMSHELRTPLNGVIGFTRQMLKTQLSNSQTDYLQTIEKSANNLLNIINDILDFSKLEAGKLALENIPFDFRESLEEVINLQATSAHEKGLEITLKVDPKIPPGLVGDPLRIQQILTNLVGNSIKFTERGNIDVSVEMRSQAGDSVELQFMVRDTGIGISERQQAQLFQAFSQADASISRRYGGTGLGLVITQKLVSQMGGEISLTSRLHQGSTFWFTLRLNSTEMPMSDLIEVELLTGKQLLLVEPNMQAASVTQQILSQEGILVTYRSSLPENEEHYDYVLLNLAANQTYDEQSVAAWIEQAKRMAPSVIMGTPSTELALADQIMTEHQIQCLTKPLSRRKLLQSLINEHVEAPQAITAPVETEESERLPLTVLAVDDNPANLKLISALLKERVETVTACSNGQQAVNLATEKKYDLIFMDIQMPLMDGVTACQNIKELELNKDTPVIAVTAHAMAGERDRLLAAGMDDYLTKPIEEHVLQQVLVHWNPNTCTESIGKVAPSYVDEPESEAPATAENTQPDVIIDWQAALKQSANKEDLAKDMLRMLIDFIPEVEEVVDHALEQDDYSREELIHVIHKLHGSSSYCGVPRLKSLCATLEHALRSGASIEEIEPEMFELQDEMIKVTTTAKLYLEQ,protein production,failed
MKDPLLNSLIYVSRYYGLANSPEALVNGLPLSDGKLTPFLLPRAAERAGLVAKENRAELEKISSLILPAILVLKGGDSCVLNSINMETREAEVTTLESGMVPISIPLEDLLEQYTGRYFLVKKQFR,protein production,not failed
MGESYSSGYSLVVRVIANDRSGLLRDITTILANEKVNVLGVASRSDTKQQLATIDMDIEIYNLQVLGRVLAKLNQLPDVIDARRQQGALEHHHHHH,protein production,not failed
SGGDVNEAYRVETDTDTFFLLVQRGRKESFYAAEIAGLNEFERAGITAPRVIASGEVNGDVYLVMTYLEEGASGSQRQLGQLVAQLHSQQQEEGKFGFSLPYEGGDISFDNHWQDDWRTIFVDKRLDHLKEELLNRGLWDANDIKVYDKVRSQIVEELEKHQSKPSLLHGDLWGGNYMFLKDGRPALFDPAPLYGDREFDIGITTVFGGFTSEFYDAYNKHYPLAKGASYRLEFYRLYLLMV,protein production,failed
MKIIIIGCGKVGAYVAKQLLDSHHQVTIIERDQKRFEQVLQIFSQAEVLHGDGTSPILLEKCSVETANAVAYLTGKDEINLVGSTVAKFNYAVDRVVARVNNPKNEWLFNADMGVDSRVSQASLLASVIINEVNIESTATLLKLNDDENAIVEFVLSKGASVHGKTVKTINFPSDVVLISVHRQGQNIIPKGETVLLEGDHILAYTNSQNQEKLAQLFR,protein production,failed
SLYDPAEKYFNCTDIQRAFFEAGIKLGAIFHQYTGIPVNSENASMAEEFIERSTMIQPFVENVRISINNVKRSSGTYSYSSLNEKMLHAEVLINYNGKKVLGVLNYDEGLDYPVMYAKEVL,protein production,not failed
MKALNDSYDVVVVGAGPAGSMASYNASKNGAKTLLIEKSQEIGTPVRCAEAVPRLEDFGINPDPSFVKSYIRGGYLIAPNGKKIVVKGGKTDGYVVERKVFDKFLAIRSGQAGTQIAVKSRVTKIEKTDDGYNVFVNYLGDEYIVKSKIVIAADGVESNIAEYAGLKSKKNPKEICSCAEYEMTNVKLLNNEMMEFYFGDICPKGYIWLFPKGDTVNVGIGVIDSKKRAIDYLDEFLTHPLVEGRLDNAVPVEFKVGGDPVGGPIKKTVADNIMVVGDAAGHVSPLTGGGIGLSMDCGLMAGDVAAQSIKAENYSEEFLDLYEKKWKEKYYKLLMNDLKYKNILQKLSDDELNAIANSIPENLEEVDVGKLAIKIVAKAPSLLRHFKELL,protein production,failed
MTAPTLSRAAMEKVIRTYYDGCNEADEAKMIACFVPEAVHYFPAGMYGGAFRGAAQIAHRWRTAVETLGSYWTIDALVIDAETAEAAIEWTHFKTNQDKVLRGAECVEFDRASGLIREIRAFYASPQAEGIARLELGDFDYAGRGYRVTSPRKPA,protein production,not failed
IHIQQIENLMEYEFSHLVQDSEEEGFNFLIRLINGYKNKVNVFNKTGECLYGIFQGDMLIGVGGLNEDPYTKDNKIGRLRRFYISRDYRRLGLGNLLLNQLLCHAEKYFEVIVLHTDTKQGDVFYTANGFVK,protein production,failed
MTLAALCQGVLERLDPRQPGRQLVALSGAPGSGKSTLSNPLAAALSAQGLPAEVVPMDGFHLDNRLLEPRGLLPRKGAPETFDFEGFQRLCHALKHQERVIYPLFDRARDIAIAGAAEVGPECRVAIIEGNYLLFDAPGWRDLTAIWDVSIRLEVPMADLEARLVQRWLDHGLNHDAAVARAQGNDLANARAIEAARLPADLTWPQA,protein production,not failed
MTEGGRVSNTSRVTRRTGLRTAAAVAAALPLLSASPASASRNRGRRLDVMTFNLRFASASEPHSWAVRRPVMRELLRRERPHVIGTQEGLYQQVRDIEADLGPHYDWIGTGRAGGSRDEFMAVFYDTRRLAPLEYDHFWLSDTPDVIGSNTWGGGSIRMVTRVRFRDLADGDRPFHFLNTHLDNASQYARARAAALIADRIAGLDRSQPLVVTGDFNAAAHKNAVYETMLGAGLVDTWDTAAERGKLYGTFHGYKPLVPDGDRIDWILASPGVAAHCASINAFSSNGQFPSDHLPVQASLRLA,protein production,failed
MKLMDVHVLFSGGKDSSLSAVILKKLGYNPHLITINFGVIPSYKLAEETAKILGFKHKVITLDRKIVEKAADMIIEHKYPGPAIQYVHKTVLEILADEYSILADGTRRDDRVPKLSYSEIQSLEMRKNIQYITPLMGFGYKTLRHLASEFFILEEIKSGTKLSSDYEAEIRHILKERGESPEKYFPEHKQTRVVGLKKEI,protein production,not failed
EQLTLRHGTRADISEIAPLLARNAADPCELVDLEHALDLLTHESSHFLAVVRNARGKIIAAMQLTIVPEFSRGGALHLHIEGPFIIPEYRTTDLDKKLRAWAVEHGRARGVKVEEVVG,protein production,failed
MSLTNHEQVLTDYLAAFIEELVRAGVKEAIISPGSRSTPLALMMAEHPILKIYVDVDERSAGFFALGLAKASKRPVVLLCTSGTAAANYFPAVAEANLSQIPLIVLTADRPHELRNVGAPQAMDQLHLYGSHVKDFTDMALPENSEEMLRYAKWHGSRAVDIAMKTPRGPVHLNFPLREPLVPILEPSPFTATGKKHHHVHIYYTHEVLDDSSIQKMVTECTGKKGVFVVGPIDKKELEQPMVDLAKKLGWPILADPLSGLRSYGALDEVVIDQYDAFLKEAEIMDKLTPEVVIRFGSMPVSKPLKNWLEQLSDIRFYVVDPGAAWKDPIKAVTDMIHCDERFLLDIMQQNMPDDAKDAAWLNGWTSYNKVAREIVLAEMANTTILEEGKIVAELRRLLPDKAGLFIGNSMPIRDVDTYFSQIDKKIKMLANRGANGIDGVVSSALGASVVFQPMFLLIGDLSFYHDMNGLLMAKKYKMNLTIVIVNNDGGGIFSFLPQANEPKYFESLFGTSTELDFRFAAAFYDADYHEAKSVDELEEAIDKASYHKGLDIIEVKTNRHENKANHQALEGHHHHHH,protein production,not failed
